From paper PMC9464187 (2022)
Each block holds one molecule with its values, some of them ahead of it.

Legend:
[1] = molecular target: HLA-A*11:01 presenting the KRAS G12D decamer peptide …; experiment: SPR; biotinylated pHLA (400-500 RU) immobilised on a streptavidin-coated CM5 chip, Biacore T200; multi cycle steady state analysis, ten 2-fold dilutions of TCR starting at 50 µM; one site fit
[2] = molecular target: HLA-A*11:01 presenting the KRAS^G12D decamer peptide … (human | not stated); experiment: SPR; biotinylated pHLA (400-500 RU) immobilised on a streptavidin-coated CM5 sensor chip, Biacore T200; multi cycle steady state analysis, 10-point titration of JDI TCR from 50 µM to 0.1 µM; one site total least squares fit
[3] = molecular target: HLA-A*11:01 presenting the KRAS^G12D decamer peptide …; experiment: SPR
[4] = molecular target: T1, KRAS WT peptide on HLA-A*11:01 (human); experiment: SPR; >4000-fold weaker than to KRAS G12D; soluble, with an engineered disulfide between the constant domains
T1 peptide: VVVGAGGVGK

[5] = molecular target: T2, KRAS G12D peptide on HLA-A*11:01 (human); experiment: SPR single cycle kinetics; soluble, with an engineered disulfide between the constant domains
T2 peptide: VVVGADGVGK

Kd [1]: 62.8 µM
Kd [2]: 63 µM
Molecule: JDI TCR (parent TCR)

other: t1/2 [3]: 0.3 h
Molecule: JDI TCR (parent TCR) JDIa9bwt

other: t1/2 [3]: > 20 h
Molecule: JDI TCR (parent TCR) JDIa96b35

Kd [4]: 3 µM
t1/2 [5]: 1.2 h
B1: JDIa41b1 TCR (TCR)
alpha TRAV19*01 CDR3: AMSVPSGDGSYQFT
beta TRBV6-2*01 CDR3: ASKVGPGQHNSPLH
